For this data set, the system named is human platelets. The data set can be described thus: Platelet adhesion assay (pNPP test). Conditions: human citrated PRP 45 min at 37° C.; PU = Carbothane PC3585A; PPG 468 and 728; fibrinogen-coated wells positive control; FIG. 10. It counts as cell-based. As for the experimental part:
• Blood collection tubes: sodium citrate Vacutainer tubes (3.2% citrate, BD Biosciences) • Non-binding 24-well and 96-well plates for suspension culture (polystyrene, Greiner Bio-One) • Spectrophotometer Spectra max PLUS 384 (Molecular Devices) • Human Fibrinogen ref 341576 (Calbiochem) • 2×pNPP buffer (0.1M citrate buffer pH5.4, 10 mM p-nitrophenylphosphate, 2% Triton X-100)
Platelet adhesion on surfaces is analysed by using the p-NitroPhenil Phosphate (pNPP) test. Values obtained with this test are directly proportional to the number of platelets adhering to the surface. The pNPP test measures the levels of alkaline and acid phosphatases released upon platelet lysis. The hydrolysis of pNPP, a substrate of these phosphatases, produces p-nitrophenol, which has a maximal absorbance at 405 nm and is proportional to the amount of platelets bound to the surface. • 1. […] 100 μl is transferred in a 96-well plate before measuring the absorbance at 405 nm in a spectrophotometer. • 10. Background readings from the PPP incubation is subtracted from the PRP reads. • 11. Numbers of platelets are determined from a calibration curve performed with increasing platelet densities. e. […]
Platelet adhesion was analysed by using the p-NitroPhenil Phosphate (pNPP) assay as described in the protocol of testing of example 10 at point b

Take fibrinogen: the human platelet adhesion entry is “adhesion was observed”.
